For two molecules, Kd results are on record in paper PMC6276866 (Circulation, 2018).

Sequences and labels used below:
B1: recombinant B56α protein (natural protein)
chain: not shown
B2: purified recombinant mutant AnkB (p.Q1283H) (SPR) (natural protein)
chain: MMNEDAAQKSDSGEKFNGSSQRRKRPKKSDSNASFLRAARAGNLDKVVEYLKGGIDINTCNQNGLNALHLAAKEGHVGLVQELLGRGSSVDSATKKGNTALHIASLAGQAEVVKVLVKEGANINAQSQNGFTPLYMAAQENHIDVVKYLLENGANQSTATEDGFTPLAVALQQGHNQAVAILLENDTKGKVRLPALHIAARKDDTKSAALLLQNDHNADVQSKMMVNRTTESGFTPLHIAAHYGNVNVATLLLNRGAAVDFTARNGITPLHVASKRGNTNMVKLLLDRGGQIDAKTRDGLTPLHCAARSGHDQVVELLLERGAPLLARTKNGLSPLHMAAQGDHVECVKHLLQHKAPVDDVTLDYLTALHVAAHCGHYRVTKLLLDKRANPNARALNGFTPLHIACKKNRIKVMELLVKYGASIQAITESGLTPIHVAAFMGHLNIVLLLLQNGASPDVTNIRGETALHMAARAGQVEVVRCLLRNGALVDARAREEQTPLHIASRLGKTEIVQLLLQHMAHPDAATTNGYTPLHISAREGQVDVASVLLEAGAAHSLATKKGFTPLHVAAKYGSLDVAKLLLQRRAAADSAGKNGLTPLHVAAHYDNQKVALLLLEKGASPHATAKNGYTPLHIAAKKNQMQIASTLLNYGAETNIVTKQGVTPLHLASQEGHTDMVTLLLDKGANIHMSTKSGLTSLHLAAQEDKVNVADILTKHGADQDAHTKLGYTPLIVACHYGNVKMVNFLLKQGANVNAKTKNGYTPLHQAAQQGHTHIINVLLQHGAKPNATTANGNTALAIAKRLGYISVVDTLKVVTEEVTTTTTTITEKHKLNVPETMTEVLDVSDEEGDDTMTGDGGEYLRPEDLKELGDDSLPSSQFLDGMNYLRYSLEGGRSDSLRSFSSDRSHTLSHASYLRDSAVMDDSVVIPSHQVSTLAKEAERNSYRLSWGTENLDNVALSSSPIHSGFLVSFMVDARGGAMRGCRHNGLRIIIPPRKCTAPTRVTCRLVKRHRLATMPPMVEGEGLASRLIEVGPSGAQFLGPVIVEIPHFAALRGKERELVVLRSENGDSWKEHFCDYTEDELNEILNGMDEVLDSPEDLEKKRICRIITRDFPQYFAVVSRIKQDSNLIGPEGGVLSSTVVPQVQAVFPEGALTKRIRVGLQAQPMHSELVKKILGNKATFSPIVTLEPRRRKFHKPITMTIPVPKASSDVMLNGFGGDAPTLRLLCSITGGTTPAQWEDITGTTPLTFVNECVSFTTNVSARFWLIDCRQIQESVTFASHVYREIICVPYMAKFVVFAKSHDPIEARLRCFCMTDDKVDKTLEQQENFAEVARSRDVEVLEGKPIYVDCFGNLVPLTKSGQHHIFSFFAFKENRLPLFVKVRDTTQEPCGRLSFMKEPKSTRGLVHQAICNLNITLPIYTKESESDQEQEEEIDMTSEKNPQDEQERIEERLAYIADHLGFSWTELARELDFTEEQIHQIRIENPNSLQDQSHALLKYWLERDGKHATDTNLVECLTKINRMDIVHLMETNTEPLQERISHSYAEIEQTITLDHSEGFSVLQEELCTAQHKQKEEQAVSKESETCDHPPIVSEEDISVGYSTFQDGVPKTEGDSSATALFPQTHKEQVQQDFSGKMQDLPEESSLEYQQEYFVTTPGTETSETQKAMIVPSSPSKTPEEVSTPAEEEKLYLQTPTSSERGGSPIIQEPEEPSEHREESSPRKTSLVIVESADNQPETCERLDEDAAFEKGDDMPEIPPETVTEEEYIDEHGHTVVKKVTRKIIRRYVSSEGTEKEEIMVQGMPQEPVNIEEGDGYSKVIKRVVLKSDTEQSEDNNE

Experiment [1] has as its target purified recombinant AnkB, wild type (SPR) (UniProt Q01484-2 1-1872). The experiment can be described thus: SPR. In general terms: In SPR one partner is held on a chip, and binding of the other changes the refractive index at the surface.
In experiment [2] the target is B1. The experiment is described as follows: SPR.

As usually defined, the Kd is a measure of binding affinity in units of concentration. Take B1: in experiment [1], the Kd came to 1.64 ± 0.05 µM. Turning to B2, in experiment [2], the Kd was 22.2 ± 6.42 µM.
